{"source": "patent US20130071393A1", "about": "(published 2013)", "molecules": {"B1": {"name": "Soluble ActRIIB-Fc D54A (Fc fusion, UniProt Q13705 19-119, looked up)", "chain": "SGRGEAETRECIYYNANWELERTNQSGLERCEGEQAKRLHCYASWANSSGTIELVKKGCWLDDFNCYDRQECVATEENPQVYFCCCEGNFCNERFTHLPEA", "notes": "T0019 variant; whole entry named; not shown: Fc domain"}, "B2": {"name": "Soluble ActRIIB-Fc D80A (Fc fusion, UniProt Q13705 19-119, looked up)", "chain": "SGRGEAETRECIYYNANWELERTNQSGLERCEGEQDKRLHCYASWANSSGTIELVKKGCWLADFNCYDRQECVATEENPQVYFCCCEGNFCNERFTHLPEA", "notes": "as for B1"}, "B3": {"name": "Soluble ActRIIB-Fc D80F (Fc fusion, UniProt Q13705 19-119, looked up)", "chain": "SGRGEAETRECIYYNANWELERTNQSGLERCEGEQDKRLHCYASWANSSGTIELVKKGCWLFDFNCYDRQECVATEENPQVYFCCCEGNFCNERFTHLPEA", "notes": "as for B1"}, "B4": {"name": "Soluble ActRIIB-Fc D80G (Fc fusion, UniProt Q13705 19-119, looked up)", "chain": "SGRGEAETRECIYYNANWELERTNQSGLERCEGEQDKRLHCYASWANSSGTIELVKKGCWLGDFNCYDRQECVATEENPQVYFCCCEGNFCNERFTHLPEA", "notes": "as for B1"}, "B5": {"name": "Soluble ActRIIB-Fc D80I (Fc fusion, UniProt Q13705 19-119, looked up)", "chain": "SGRGEAETRECIYYNANWELERTNQSGLERCEGEQDKRLHCYASWANSSGTIELVKKGCWLIDFNCYDRQECVATEENPQVYFCCCEGNFCNERFTHLPEA", "notes": "as for B1"}, "B6": {"name": "Soluble ActRIIB-Fc D80K (Fc fusion, UniProt Q13705 19-119, looked up)", "chain": "SGRGEAETRECIYYNANWELERTNQSGLERCEGEQDKRLHCYASWANSSGTIELVKKGCWLKDFNCYDRQECVATEENPQVYFCCCEGNFCNERFTHLPEA", "notes": "as for B1"}, "B7": {"name": "Soluble ActRIIB-Fc D80M (Fc fusion, UniProt Q13705 19-119, looked up)", "chain": "SGRGEAETRECIYYNANWELERTNQSGLERCEGEQDKRLHCYASWANSSGTIELVKKGCWLMDFNCYDRQECVATEENPQVYFCCCEGNFCNERFTHLPEA", "notes": "as for B1"}, "B8": {"name": "Soluble ActRIIB-Fc D80N (Fc fusion, UniProt Q13705 19-119, looked up)", "chain": "SGRGEAETRECIYYNANWELERTNQSGLERCEGEQDKRLHCYASWANSSGTIELVKKGCWLNDFNCYDRQECVATEENPQVYFCCCEGNFCNERFTHLPEA", "notes": "as for B1"}, "B9": {"name": "Soluble ActRIIB-Fc D80R (Fc fusion, UniProt Q13705 19-119, looked up)", "chain": "SGRGEAETRECIYYNANWELERTNQSGLERCEGEQDKRLHCYASWANSSGTIELVKKGCWLRDFNCYDRQECVATEENPQVYFCCCEGNFCNERFTHLPEA", "notes": "as for B1"}, "B10": {"name": "Soluble ActRIIB-Fc E37A (Fc fusion, UniProt Q13705 19-119, looked up)", "chain": "SGRGEAETRECIYYNANWALERTNQSGLERCEGEQDKRLHCYASWANSSGTIELVKKGCWLDDFNCYDRQECVATEENPQVYFCCCEGNFCNERFTHLPEA", "notes": "as for B1"}, "B11": {"name": "Soluble ActRIIB-Fc K55A (Fc fusion, UniProt Q13705 19-119, looked up)", "chain": "SGRGEAETRECIYYNANWELERTNQSGLERCEGEQDARLHCYASWANSSGTIELVKKGCWLDDFNCYDRQECVATEENPQVYFCCCEGNFCNERFTHLPEA", "notes": "as for B1"}, "B12": {"name": "Soluble ActRIIB-Fc K74A (Fc fusion, UniProt Q13705 19-119, looked up)", "chain": "SGRGEAETRECIYYNANWELERTNQSGLERCEGEQDKRLHCYASWANSSGTIELVAKGCWLDDFNCYDRQECVATEENPQVYFCCCEGNFCNERFTHLPEA", "notes": "as for B1"}, "B13": {"name": "Soluble ActRIIB-Fc K74F (Fc fusion, UniProt Q13705 19-119, looked up)", "chain": "SGRGEAETRECIYYNANWELERTNQSGLERCEGEQDKRLHCYASWANSSGTIELVFKGCWLDDFNCYDRQECVATEENPQVYFCCCEGNFCNERFTHLPEA", "notes": "as for B1"}, "B14": {"name": "Soluble ActRIIB-Fc K74I (Fc fusion, UniProt Q13705 19-119, looked up)", "chain": "SGRGEAETRECIYYNANWELERTNQSGLERCEGEQDKRLHCYASWANSSGTIELVIKGCWLDDFNCYDRQECVATEENPQVYFCCCEGNFCNERFTHLPEA", "notes": "as for B1"}, "B15": {"name": "Soluble ActRIIB-Fc K74Y (Fc fusion, UniProt Q13705 19-119, looked up)", "chain": "SGRGEAETRECIYYNANWELERTNQSGLERCEGEQDKRLHCYASWANSSGTIELVYKGCWLDDFNCYDRQECVATEENPQVYFCCCEGNFCNERFTHLPEA", "notes": "as for B1"}, "B16": {"name": "Soluble ActRIIB-Fc L79A (Fc fusion, UniProt Q13705 19-119, looked up)", "chain": "SGRGEAETRECIYYNANWELERTNQSGLERCEGEQDKRLHCYASWANSSGTIELVKKGCWADDFNCYDRQECVATEENPQVYFCCCEGNFCNERFTHLPEA", "notes": "as for B1"}, "B17": {"name": "Soluble ActRIIB-Fc R56A (Fc fusion, UniProt Q13705 19-119, looked up)", "chain": "SGRGEAETRECIYYNANWELERTNQSGLERCEGEQDKALHCYASWANSSGTIELVKKGCWLDDFNCYDRQECVATEENPQVYFCCCEGNFCNERFTHLPEA", "notes": "as for B1"}, "B18": {"name": "Soluble ActRIIB-Fc W78A (Fc fusion, UniProt Q13705 19-119, looked up)", "chain": "SGRGEAETRECIYYNANWELERTNQSGLERCEGEQDKRLHCYASWANSSGTIELVKKGCALDDFNCYDRQECVATEENPQVYFCCCEGNFCNERFTHLPEA", "notes": "as for B1"}, "B19": {"name": "Soluble ActRIIB-Fc WT (64R) (Fc fusion, UniProt Q13705 19-119, looked up)", "chain": "SGRGEAETRECIYYNANWELERTNQSGLERCEGEQDKRLHCYASWRNSSGTIELVKKGCWLDDFNCYDRQECVATEENPQVYFCCCEGNFCNERFTHLPEA", "notes": "as for B1"}}, "key": {"[1]": {"molecular_target": "T1, GDF11 (UniProt O95390 299-407)", "T1 construct": "Ligand used in the reporter gene and BiaCore assays; construct not described; also called Growth and Differentiation Factor-11; BMP11", "T1 sequence (looked up)": "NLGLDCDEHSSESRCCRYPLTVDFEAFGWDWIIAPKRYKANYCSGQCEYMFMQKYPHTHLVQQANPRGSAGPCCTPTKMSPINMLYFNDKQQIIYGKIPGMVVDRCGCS", "test": "cell-based or functional assay"}, "[2]": {"molecular_target": "T2, Activin A (UniProt P08476 311-426)", "T2 construct": "also called ActA", "T2 sequence (looked up)": "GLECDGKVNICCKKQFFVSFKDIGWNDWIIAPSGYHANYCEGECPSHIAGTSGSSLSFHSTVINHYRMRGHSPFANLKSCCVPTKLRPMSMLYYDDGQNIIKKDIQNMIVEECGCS", "test": "cell-based or functional assay"}, "[3]": {"molecular_target": "T1, GDF11", "test": "BiaCore; ligand coupled to the device, receptor-Fc flowed over"}, "[4]": {"molecular_target": "T2, Activin A", "test": "BiaCore; ligand coupled to the device, receptor-Fc flowed over"}, "[5]": {"molecular_target": "T1, GDF11", "test": "BiaCore; ligand coupled, receptor-Fc flowed over; legend: -- = <⅕ WT binding"}}, "data": [{"molecule": "ActRIIB-Fc A64 20-134 (from UniProt Q13705 20-134) (Fc fusion)", "values": [{"measurement": "KI, GDF11 Inhibition Activity (cell based assay)", "setting": "[1]", "value": 1000, "unit": "nM"}, {"measurement": "KI, Activin Inhibition Activity (cell based assay)", "setting": "[2]", "value": 1000, "unit": "nM"}]}, {"molecule": "B1", "values": [{"measurement": "binding result", "setting": "[3]", "value": "no binding"}]}, {"molecule": "B2", "values": [{"measurement": "binding result", "setting": "[3]", "value": "no binding"}, {"measurement": "binding result", "setting": "[4]", "value": "no binding"}]}, {"molecule": "B3", "values": [{"measurement": "binding result", "setting": "[3]", "value": "no binding"}, {"measurement": "binding result", "setting": "[4]", "value": "no binding"}]}, {"molecule": "B4", "values": [{"measurement": "binding result", "setting": "[3]", "value": "no binding"}, {"measurement": "binding result", "setting": "[4]", "value": "no binding"}]}, {"molecule": "B5", "values": [{"measurement": "binding result", "setting": "[4]", "value": "no binding"}, {"measurement": "binding relative to WT", "setting": "[5]", "value": "< 0.2", "unit": "fold"}]}, {"molecule": "B6", "values": [{"measurement": "binding result", "setting": "[3]", "value": "no binding"}, {"measurement": "binding result", "setting": "[4]", "value": "no binding"}]}, {"molecule": "B7", "values": [{"measurement": "binding result", "setting": "[3]", "value": "no binding"}, {"measurement": "binding result", "setting": "[4]", "value": "no binding"}]}, {"molecule": "B8", "values": [{"measurement": "binding result", "setting": "[3]", "value": "no binding"}, {"measurement": "binding result", "setting": "[4]", "value": "no binding"}]}, {"molecule": "B9", "values": [{"measurement": "binding result", "setting": "[3]", "value": "no binding"}, {"measurement": "binding result", "setting": "[4]", "value": "no binding"}]}, {"molecule": "B10", "values": [{"measurement": "binding result", "setting": "[3]", "value": "no binding"}, {"measurement": "binding result", "setting": "[4]", "value": "no binding"}]}, {"molecule": "B11", "values": [{"measurement": "binding result", "setting": "[3]", "value": "no binding"}]}, {"molecule": "B12", "values": [{"measurement": "Kd", "setting": "[3]", "value": 5.3, "unit": "nM"}, {"measurement": "Kd", "setting": "[4]", "value": 4.35, "unit": "nM"}]}, {"molecule": "B13", "values": [{"measurement": "binding result", "setting": "[4]", "value": "no binding"}, {"measurement": "binding relative to WT", "setting": "[5]", "value": "< 0.2", "unit": "fold"}]}, {"molecule": "B14", "values": [{"measurement": "binding result", "setting": "[4]", "value": "no binding"}, {"measurement": "binding relative to WT", "setting": "[5]", "value": "< 0.2", "unit": "fold"}]}, {"molecule": "B15", "values": [{"measurement": "binding result", "setting": "[4]", "value": "no binding"}, {"measurement": "binding relative to WT", "setting": "[5]", "value": "< 0.2", "unit": "fold"}]}, {"molecule": "B16", "values": [{"measurement": "binding result", "setting": "[3]", "value": "no binding"}]}, {"molecule": "B17", "values": [{"measurement": "binding result", "setting": "[3]", "value": "no binding"}, {"measurement": "binding result", "setting": "[4]", "value": "no binding"}]}, {"molecule": "B18", "values": [{"measurement": "binding result", "setting": "[3]", "value": "no binding"}, {"measurement": "binding result", "setting": "[4]", "value": "no binding"}]}, {"molecule": "B19", "values": [{"measurement": "Kd", "setting": "[3]", "value": 86, "unit": "nM"}]}]}
